Source: the nanobody polyreactivity screen of Harvey et al. (2022)

Experiment: yeast display, Sf9 membrane polyspecificity reagent, FACS + sequencing; frameworks hold sequencing errors
Method in brief: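 A synthetic nanobody library was expressed on Saccharomyces cerevisiae BJ5465 by galactose induction for 36–48 hours. The library was stained for 1 hour at 4 °C with 10% biotinylated, detergent-solubilized Sf9 membrane reagent and enriched with streptavidin microbeads before FACS. Low and high (top ~1%) gates were set on anti-HA fluorescence for expression and streptavidin fluorescence for reagent binding, and each polyreactivity label reflects the gate of origin.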

Row | Sequence | polyreactivity (PSR sort gate)
1 | QVQLVESGGGLVQEGGSLRLICAASGLTFFPYAMGWYRQAPGKDRELVAAITTSDGTTYYADSVKGRFTISRDNAKNTVYLQMNSLKPEDTAVYYCAAVYSPRSVWWYDYWGQGTQVTVSS | low polyreactivity
2 | QVQLVESGGALVQAGGSLRLSCAASGRTFLGYGMGWYRQAPGKERVLVAAITSGGGSTYYADSVKGRFTISRDNAKNPVYLQMNSLKPEDTAVYYCSAKYYRAYCPHSRTRGYWGQGTQVTVSS | high polyreactivity
3 | QVQLVESGAGLVQAGGSLRLTCAASGIIFPFYAMGWYRQAPGKERELVAGITSGGDTYYADSVKGRFTISRDNAKNTVYLQMNSLKPEDTAVSYCAAVYRRQYGYWGQGTQVTVSS | high polyreactivity
4 | QVQLVESVGGLVQAGGTLRLSCSASGSTFNVYAMGWYIQATGKERELVAAITRRGGSTYYADSVKGRFTISRDNAKNTVYLQMNSLKPEDTADYYFAARRRLDYYYYNYWGQGTQETVSS | high polyreactivity
5 | QVQLVESGGGLVQAGGSLRLSCAASGLIFASYAMGWYRQAPGKERELVAAISWSGGSTYYADSVKGRFTISRDNAKNTVYLQMNSLKPEDTAVYYCAARKLFIPKYYYWGQGTQVTVSS | high polyreactivity
6 | QVQLVESGGGLVQAGGSLRLSCAASAITFFNNAMGWYRPATGKERELVADITYSGSTYYADSVKGRFTISRDNAQNSVYLQMNSLKPEDTAVYYCSAGHAYDYFVYYPDDYWGQGTQVTVSS | low polyreactivity
7 | QVQLVESGGGLVQAGGSLRLSCAASGFIFNFYAMGWYRQAPGKERELVAAISRNGGSTYYADSVKGRFTISRDNAKNTVYLQMNSLKPEDTAVYYCNAVGSYGDFGYWGQGTQVTVSS | high polyreactivity
8 | QVQLVESGGGLVQAGGSLRLSCAASGSTFSNNTMGWYRQAPGKETELVATIDFNGGSTYYADSVKGRFTISRDNAKNTVYLQMNSLKPEDTAGYYCAAAEYLYTLPYGYWGQGTQVTVSS | low polyreactivity
9 | QVQLVESGGGLVQAGGSLRLSCAASGIIFAHNAMGWYRQAPGKERELVAAISKRGGSTYYADSVKGRFTISRDNAKNTVYLQMNSLKPEDTAVYYCNKYSSYSFTYDSWGQGTQVTVSS | high polyreactivity
10 | QVQLGESGGGLVQAGGSLRLSCAPTGRTFVRNAIGWYRPAPGKERELVAAISYSGGSTTYADSVKGRFTISRDNAKNTVYLQMNSLKPADTAVYYCAKKPPVGEPSGREYWGQGTQVTVSS | low polyreactivity
11 | QVQLVESGGGLVQAGGSLRLSCAASGSIFDPYAMGWYRQAPGKERELVAGISFSGGRTYYADSVKGRFTISRDNAKNTVYLQMNSLKPEDTAVYYCNKLLTQGAYPYYFWGQGTQVTVSS | high polyreactivity
12 | QVQLVESGGGLVQAGGSLRLSCAASGRTFWGYVMGWYRQAPGKERELVAAISRGDSTYYADSVKGRFTISRDNAKNTVYLQMNSLKPEDTAVYYCAKPGYYVRYGYWGQGTQVTVSS | high polyreactivity
13 | QVQLVESGGGLVQAGGSLRLSCAASGSILGINVMGWYRQAPGKERELVAAISWRVGRTYYADSVKGRFTISRDNAKKTDDLQMNSLKPEDTAVYYCNVDRWGNIPVGDYDYWGQGTEVTVSS | high polyreactivity
14 | QVQLVESGGGLVQAGGSLRLSCAASGRTCWDYAMGWYRPAPGKERELVAAITWGGGSTYYADSVKGRFTISRDNAKNTVYLQMNSLKPEDTAVYYCAADTKGWGQGTQVTVSS | low polyreactivity
15 | QVQLVESGGGLVQAGGSLRLSCAASGSIFYNNAMGWYRQAPGKERELVAAISWRGGSTYYADSVKGRFTISRDNAKNTVYLQMNSLKPEDTAVYYCNAGVRYRGFDYWGQGTQVTVSS | high polyreactivity
16 | QVQLVESGGGLVQAGGSLRLSCAASGSIFYDYEMGWYRQAPGKERELVASINTGGSTNYADSVKGRFTISRDNAKNTVYLKMNSLKPEDTAVYYCNAPRGYPTSANHLDYWGQGTQVTVSS | low polyreactivity
17 | QVHRVVSGGGLVQAGGSLRLSCSAYGFTFYLYAMGWYRQAPGKERELVAAISSGTSTYYADSVKGRFTISRDNAKNTVYLQMNSLKPEDTAVYYCDAATNWGGEYWGHGTQVTVSS | high polyreactivity
18 | QVQHVESGGGLVQAGGSLRLSCAASGRIFGTNAMGWYRQAPGKERELVAAINGSDSSTYYADSVKGRFTISRDNAKNTVYLQMNSLKPEDTAVYYCNADWSGAPERSTDGYDYWGQGTQVTVSS | low polyreactivity
19 | QVQLVESGGGLVKAGGSLRLICAASGSTFGGNDKGWYRHAPGKERELVDAISSGTSTNYADSVKGRFTISRDNAMNTVYLQMNSLKPEDTAVYYCNAGFWYRRTYDYWGQGTQVTVSS | low polyreactivity
20 | QVQLVETGGGLVQAGGSLRISCAPSGRTFRNNDMAWYRQAPGTEREFVAVISNTGGSTYYADSVKGRFTNSRDNAKNTVYLQMNSLKPEDTAVYYCAVRPRYSQYYYWGQGTQVTVSS | high polyreactivity
21 | QVQLVQAGGGLVQAGGILRLSCAASGRIFRLYTMGWYRQAPGKERELVAAINSSGGNTYYADSVKGRFTISRDNAKNNVNLQMNSLKPEDTAVYYCAAGWSYPVRNIYYDWGQGTQVTVSS | high polyreactivity
22 | QVQLVESGGGLVQAGGSLRLSCAASGSTFVGYAMGWYRQAPGKERELVAAISRSGGRTYYADSVKGRFTISRDNAKNTVYLQMNSLKPEETAVYYCYPYYIASTFDYWGQGTQVTVSS | high polyreactivity

Row | Sequence | polyreactivity (PSR sort gate)
23 | QVQLVESGGGLVQAGGSLRLSCAASGSTFFHYAMGWYRQAPGKERELVAAIDSNGGSTYYADSVKGRFTISRDNAKNTVYLQMNSLKPEVTAVYYCAADDLAEFEYDYWGLGTQVTVSS | low polyreactivity
24 | QVQLVESGGGLVQAGGSLRLSCAASGRIFYEYAMGWYRQAPGKEREVVAAISNSGGSTSYADSVKGRFSISRDNATNTDYLQMNSLQPEDTAVSYCAAGSHSGRAYYYWGEGTQVTVSS | high polyreactivity
25 | QVQLVESGGGLVQAGGSLSLSCAASGSIFRWYAMGWYRQAPGKERELVALISWRGGSTYADSVKGRFTISRDNAKNTVYLQMNSLKPEDTADYYCNARPGSSYWYDAQWGEYGYWGQGTQVTVSS | high polyreactivity
26 | QVQLVESGGGVVQAGGSLRLSCAASGSTFYLYDMGWYRQEPGKERELVATITSGTSTTYADSVKGRYTISRDNAKNTVYLQMNSLKPEDTAVYYCNATDVGIITVGYGHGGYYWGQGTQVTVSS | low polyreactivity
27 | QAQLQESGGGLVQAGGSLPRSCAPSGSIFRFSGMGWYRRAPGKERELVASIGFGSITYYEDRVKGRFTISRDNANNTVYLQMNSLKPEDTAVYYCAVQVQDDSWLDYWGQGTQVTVSC | low polyreactivity
28 | QVQLVESGGGLVQAGGSLRLSCAASGSTFRNYAMGWYRQAPGKERELVAAISRGDGTYYADSVKGRFTISRDNAKNTVYLQMNSLKPEDTAVYYCAAAYRGRQNPMGYWGQGTQVTVSS | high polyreactivity
29 | QVQLVESGGGLVQAGGSLRLSCAASGRIFILYAMGWYRQAPGKERELVATITKSGGNTYYADSVKGRFTISRDNAKNTVYLQMNSLKPEDTAVYYCAAQGRDSTPHGYWGQGTQVTVSS | high polyreactivity
30 | QVQLVESGGGLVQAGGTLRLSCAASGSTFEYYAMGSYRQAPGKEREFVAAISSGPSTTYADSVKGRFTISRDNSKNTVYLQMNSLKPEDTAVYYCARRDGTTQALFGYDYWGQGTQVTVSS | low polyreactivity
31 | QVQLVESGGGLVQARGSLRLSCAASGRTFDLYAMGWYRQSPGKERELVAAITKGGGSTYYADSVKGRFTISRDNAKNTVYLQMNSLKPEDTAVYYCAARKYKRIYRISSGIGYYWGQGTQVTVSS | high polyreactivity
32 | QVQLVESGGGLVQAGGSLRLSCAASGRTLSHYAMGWYRQAPGKERELVAAISQSGGSTRYADSVKGRFTISRDNAKNTVYLQMISLKPEDTAVYYCAVRQLYSYPGDRRGYYWGQGTQVTVSS | high polyreactivity
33 | QDQLVESGGGLVQAGGSLRLSCASYGSTFGANAMGWYRQAHGKARELVATISSGGRTYYADSVKGRFTISRDNAKITVYLQMNSLKPEDTAVYYCNAGADYTYVYISVYVLYDYLGQGTQVTVSS | low polyreactivity
34 | QVQLVESGGGLVQAGGSLRLSCAASGITYFEYAMGWYRQATGKETELVAGIRFSGSTTYYADSVKGRFTISRDNAKNTVYLQMNSLKPEDTAVYYCNVDYYSGLYDYDSWGQGTQVTVSS | low polyreactivity
35 | QVQLVETGAGLVQAGGSLRLSCAASGRTYVYNAMGWYRQAPGKERELVAAIDGGGDRTYYADSVKGRFTISRDNAKNTVYLQMNSRKPEDTAVYYCARDQGDTYYYSYPEGDYWGQGTQVTVSS | low polyreactivity
36 | QVQLVESGGGLVQAGGSLRLSCAASGLTFLYYAMGWYRQAPGKERELVAAITGSGGTTNYADSVKGRFTISRDNAKNTVYLQMNSLKPEDTAVYYCAARGRKYYTSLGYYYWGQGTQVTVSS | high polyreactivity
37 | RVQLVQSGGGLVQAGGSLRLSCAASGRIFSYNAMGWYRQAPGKERELVAAITFSGGGTYYADSVKGRFTISRDNAKNTVYLQMNSLIPEDTAVYYCNKVSYGYSTYGYWGQGTQVTVSS | low polyreactivity
38 | QVQLVESGGRLVQAGGSLRLSCAASGSTFGWYAMAWYRPAPGKERELVAAIRSNGGSTYYADSVKGRFTISRDNAKNTVYLQMNSLKPEDTAVYYCAARGSPSKHHWYDYWGQGTQVTVSS | low polyreactivity
39 | QVQLVESGGGLVQAGGSLRLSCAASGRIFDYNAMGWYRQVPGKERELVAAITKDDGSTYYADSVKGRFTISRDNAKNTVYLQMTSLKPEDTAVYYCAADFYWTYVDIWYDYWGHGTQVTVSS | low polyreactivity
40 | QVQLVESVGRLVQAGGSLRLSCGASGRIFKWYAMGWFRQARGNERELVAAITSRGSTYYADSVKGRFTISRDNAKNTVYLQMNSLKPEDTAVYYCNRYVVHRRDDYWGQGTQVTVSS | high polyreactivity
41 | QVQLVESGGGLVQAGGSLRLSCAASGSTFSLNAIGWFRQAPGKERQLVAAITGRGTRTYYADSVKGRFTLSRDNAKNTVYLQMNSLKPEDTAVYYCAKDYPRGSPYGYNYWGQGTQVTVSS | high polyreactivity
42 | QVQLVESGGGLVQAGGSLRLSCAASGSIFLAYLKGWYRQAPGKERELVAAISYRGVSTYYADSVKGRFTISRDNAKNTVYLQMTRLNPEDTAVYYFAAEHLWGAVFLYVRSTGLDYWGQGTQVTVSS | low polyreactivity
43 | QVHLVESGGGLVQAGGSLRLSCAASGSNIYNNAMGWYRQAPGTERELVAAIRSTGTRTYYADSVKGRFTISRDNAKNPVNLQMNSLKPEDTAVYYCAVGDYGLWSYDYWGQGTQVTVSS | low polyreactivity
